# Measurements published in publication PMC8962422.
# Target: CM19XA (UniProt P15391)
# Assay: SEC; ENrich SEC 650 column on an NGC system, running buffer PBS, peak positions compared with BioRad size exclusion standards; after Ni-NTA purification
substance,measurement,value
CM19XA (from UniProt P15391 20-291; Q9Y624 28-238),stoichiometry N,2
